Results reported in patent publication US20210355194A1 (TWIST BIOSCIENCE, published 2021).

B1: 10-9 (VHH)
VHH: EVQLVESGGGLVQPGGSLRLSCAASGIPFRSRTMGWFRQAPGKEREFVAGITGSGRSQYYADSVKGRFTISADNSKNTAYLQMNSLKPEDTAVYYCARGARIFGSVAPWRGGNYYGMDVWGQGTLVTVSS
B2: 10-17 (VHH)
VHH: EVQLVESGGGLVQPGGSLRLSCAASGRTFSIYAMGWFRQAPGKEREFVARITRGGITKYADSVKGRFTISADNSKNTAYLQMNSLKPEDTAVYYCARGLGWLLGYYWGQGTLVTVSS
B3: 10-30 (VHH)
VHH: EVQLVESGGGLVQPGGSLRLSCAASGRTFSSFRFRAMGWFRQAPGKEREFVALIFSGGSTYYADSVKGRFTISADNSKNTAYLQMNSLKPEDTAVYYCAREWGRWLQRGSYWGQGTLVTVSS
B4: 10-5 (VHH)
VHH: EVQLVESGGGLVQPGGSLRLSCAASGRSLGIYRMGWFRQAPGKEREFVAAITSGGRKNYADSVKGRFTISADNSKNTAYLQMNSLKPEDTAVYYCAKRTIFGVGRWLDPWGQGTLVTVSS
B5: 10-19 (VHH)
VHH: EVQLVESGGGLVQPGGSLRLSCAASGRTFRSYGMGWFRQAPGKEREFVASISRSGTTMYADSVKGRFTISADNSKNTAYLQMNSLKPEDTAVYYCARRGLLQWFGAPNSWFDPWGQGTLVTVSS
B6: 10-29 (VHH)
VHH: EVQLVESGGGLVQPGGSLRLSCAASGRTFTSYRMGWFRQAPGKEREFVAEISSSGGYTYYADSVKGRFTISADNSKNTAYLQMNSLKPEDTAVYYCARVGPLRFLAQRPRLRPDYWGQGTLVTVSS
B7: 10-51 (VHH)
VHH: EVQLVESGGGLVQPGGSLRLSCAASGRFFSTRVMGWFRQAPGKEREFVARIWPGGSTYYADSVKGRFTISADNSKNTAYLQMNSLKPEDTAVYYCARDRGIFGVSRWGQGTLVTVSS
B8: 10-44 (VHH)
VHH: EVQLVESGGGLVQPGGSLRLSCAASGRTFRRYTMGWFRQAPGKEREFVAVISWSGGSTKYADSVKGRFTISADNSKNTAYLQMNSLKPEDTAVYYCARKGRWSGMNVWGQGTLVTVSS
B9: 10-43 (VHH)
VHH: EVQLVESGGGLVQPGGSLRLSCAASGRTFRRYHMGWFRQAPGKEREFVAAITSGGRTNYADSVKGRFTISADNSKNTAYLQMNSLKPEDTAVYYCTTDGLRYFDWFPWASAFDIWGQGTLVTVSS
B10: 9-6 (VHH)
VHH: EVQLVESGGGLVQPGGSLRLSCAASGRTFSRFAMGWFRQAPGKEREFVAAIRWSGGRTVYADSVKGRFTISADNSKNTAYLQMNSLKPEDTAVYYCAIEPGTIRNWRNRVPFARGNFGWGQGTLVTVSS
B11: 9-3 (VHH)
VHH: EVQLVESGGGLVQPGGSLRLSCAASGRTFSRYAMGWFRQAPGKEREFVAAISRSGKSTYYADSVKGRFTISADNSKNTAYLQMNSLKPEDTAVYYCAASSVFSDLRYRKNPKWGQGTLVTVSS
B12: 10-11 (VHH)
VHH: EVQLVESGGGLVQPGGSLRLSCAASGRNFRRNSMGWFRQAPGKEREFVAGISWSGARTHYADSVKGRFTISADNSKNTAYLQMNSLKPEDTAVYYCARVSRRPRSPPGYYYGMDVWGQGTLVTVSS
B13: 9-10 (VHH)
VHH: EVQLVESGGGLVQPGGSLRLSCAASGRMFSSRSMGWFRQAPGKEREFVALINRSGGSQFYADSVKGRFTISADNSKNTAYLQMNSLKPEDTAVYYCAARRWIPPGPIWGQGTLVTVSS

These binders were tested against SARS-CoV-2 membrane protein on expressing cells (SARS-CoV-2, UniProt P0DTC5 1-222).

First: B1
Second: B2
The “MFI Ratio” value of the first is higher: 1.61 for the first, 1.59 for the second.

Compared with B3, B4 is higher in “MFI Ratio” value: 1.57 for the first, 1.59 for the second.

Going from B5 to B6, the “MFI Ratio” value falls from 1.54 to 1.48.

Going from B7 to B8, the “MFI Ratio” value falls from 1.47 to 1.46.

Going from B9 to B10, the “MFI Ratio” value falls from 1.55 to 1.47.

Going from B11 to B12, the “MFI Ratio” value falls from 1.61 to 1.56.

B13 was tested, and the “MFI Ratio” value was 1.52.
